Assay results taken from US20140087995A1 (published 2014).
Blank lines part the entries; values can stand above or below the binder they belong to. Numbered stars: 1 amine (or outer) side, 2 acyl side, 3 side chain; on linkers, the order of the positions; unused ones are H or OH. Bridge positions count the residues as written; N and C are the ends. Side chains are listed from the residue outwards. Ends that are not written are not given here. * marks the point of attachment. C20 diacid = O=C(O)CCCCCCCCCCCCCCCCCCC(=O)*; γGlu = O=C(O)[C@H](CCC(=O)[*:2])N[*:1]; AEEA = NCCOCCOCC(=O)O

Tests used:
[1] = biological target: T1, human calcitonin receptor (human, UniProt P30988 25-474); test: ratio of IC50 at hCTR to IC50 at the human amylin receptor (reference)
T1 construct: whole, on cells; also called hCTR; hCT
T1 sequence (looked up): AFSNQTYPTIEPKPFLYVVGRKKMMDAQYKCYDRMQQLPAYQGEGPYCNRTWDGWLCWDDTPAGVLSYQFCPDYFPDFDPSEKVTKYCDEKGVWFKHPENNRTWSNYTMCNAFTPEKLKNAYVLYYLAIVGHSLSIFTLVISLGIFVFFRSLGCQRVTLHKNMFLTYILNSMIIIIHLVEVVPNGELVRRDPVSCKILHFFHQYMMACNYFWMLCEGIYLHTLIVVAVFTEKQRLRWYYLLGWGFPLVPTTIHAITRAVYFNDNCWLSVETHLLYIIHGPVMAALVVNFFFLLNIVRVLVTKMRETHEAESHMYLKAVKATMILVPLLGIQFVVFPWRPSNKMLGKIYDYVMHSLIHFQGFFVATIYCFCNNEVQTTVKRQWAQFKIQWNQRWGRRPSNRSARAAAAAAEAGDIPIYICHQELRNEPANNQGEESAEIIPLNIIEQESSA
In short: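 Competition binding by SPA with cell membranes (35 ng/μL) and SPA beads in 50 mM Hepes pH 7.4 with 1 mM CaCl2, 5 mM MgCl2, 0.1% OA and 0.02% Tween20. Incubated 120 min at 25 °C with shaking, then counted.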

[2] = biological target: T1, human calcitonin receptor; test: SPA competition binding, membranes with human calcitonin receptor, displacement of 125I-calcitonin (Assay VII)
In short: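 BHK hCTR membranes 35 ng/μL + SPA beads 0.05 mg/well; buffer 50 mM Hepes pH 7.4, 1 mM CaCl2, 5 mM MgCl₂, 0.1% OA, 0.02% Tween20. 120 min, 25° C., shaking. Scintillation count; IC50 by one-site binding competition.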

[3] = biological target: T2, human amylin receptor (amylin 3(a) receptor: human calcitonin receptor co-expressed with RAMP-3) (human, UniProt P30988 25-474; O60896 24-148, limits assumed); test: cell-based or functional assay
T2 sequence (looked up) 1: T1 sequence (looked up)
T2 sequence (looked up) 2: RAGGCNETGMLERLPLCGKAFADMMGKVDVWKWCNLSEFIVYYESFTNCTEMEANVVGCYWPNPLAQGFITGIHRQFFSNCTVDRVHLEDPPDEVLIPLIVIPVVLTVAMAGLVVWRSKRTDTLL

[4] = biological target: T3, human calcitonin receptor (human, UniProt P30988 25-474); test: cell-based or functional assay
T3 sequence (looked up): T1 sequence (looked up)

Ratio hCT/hAmylin binding [1]: 48.9
IC50 [2]: 9.53 nM
B2: N^-1-[(4S)-4-carboxy-4-(19-carboxynonadecanoylamino)butanoyl]-Gly[Arg1,Arg17,Pro21,Pro27]-h-amylin (peptide)
peptide: {C20 diacid-γGlu}-GRCNTATCATQRLANFLRHSSPNFGAIPSSTNVGSNTY-NH2
modifications: disulfide 3-8
SMILES: CC[C@H](C)[C@H](NC(=O)[C@H](C)NC(=O)CNC(=O)[C@H](Cc1ccccc1)NC(=O)[C@H](CC(N)=O)NC(=O)[C@@H]1CCCN1C(=O)[C@H](CO)NC(=O)[C@H](CO)NC(=O)[C@H](Cc1c[nH]cn1)NC(=O)[C@H](CCCNC(=N)N)NC(=O)[C@H](CC(C)C)NC(=O)[C@H](Cc1ccccc1)NC(=O)[C@H](CC(N)=O)NC(=O)[C@H](C)NC(=O)[C@H](CC(C)C)NC(=O)[C@H](CCCNC(=N)N)NC(=O)[C@H](CCC(N)=O)NC(=O)[C@@H](NC(=O)[C@H](C)NC(=O)[C@@H]1CSSC[C@H](NC(=O)[C@H](CCCNC(=N)N)NC(=O)CNC(=O)CC[C@H](NC(=O)CCCCCCCCCCCCCCCCCCC(=O)O)C(=O)O)C(=O)N[C@@H](CC(N)=O)C(=O)N[C@@H]([C@@H](C)O)C(=O)N[C@@H](C)C(=O)N[C@@H]([C@@H](C)O)C(=O)N1)[C@@H](C)O)C(=O)N1CCC[C@H]1C(=O)N[C@@H](CO)C(=O)N[C@@H](CO)C(=O)N[C@H](C(=O)N[C@@H](CC(N)=O)C(=O)N[C@H](C(=O)NCC(=O)N[C@@H](CO)C(=O)N[C@@H](CC(N)=O)C(=O)N[C@H](C(=O)N[C@@H](Cc1ccc(O)cc1)C(N)=O)[C@@H](C)O)C(C)C)[C@@H](C)O
notes: extended by one residue at the N-terminus; also called compound 46

Ratio hCT/hAmylin binding [1]: 26.8
IC50 [2]: 14.8 nM
B4: N^ε-[2-[2-[2-[[(4S)-4-carboxy-4-(19-carboxynonadecanoylamino)butanoyl]amino]ethoxy]ethoxy]acetyl]Lys[Arg1,Arg17,Pro21,Pro27,His35]-h-amylin (peptide)
peptide: K([AEEA-γGlu-C20 diacid])RCNTATCATQRLANFLRHSSPNFGAIPSSTNVGSHTY-NH2
modifications: disulfide 3-8; N-terminus assumed
SMILES: CC[C@H](C)[C@H](NC(=O)[C@H](C)NC(=O)CNC(=O)[C@H](Cc1ccccc1)NC(=O)[C@H](CC(N)=O)NC(=O)[C@@H]1CCCN1C(=O)[C@H](CO)NC(=O)[C@H](CO)NC(=O)[C@H](Cc1c[nH]cn1)NC(=O)[C@H](CCCNC(=N)N)NC(=O)[C@H](CC(C)C)NC(=O)[C@H](Cc1ccccc1)NC(=O)[C@H](CC(N)=O)NC(=O)[C@H](C)NC(=O)[C@H](CC(C)C)NC(=O)[C@H](CCCNC(=N)N)NC(=O)[C@H](CCC(N)=O)NC(=O)[C@@H](NC(=O)[C@H](C)NC(=O)[C@@H]1CSSC[C@H](NC(=O)[C@H](CCCNC(=N)N)NC(=O)[C@@H](N)CCCCNC(=O)COCCOCCNC(=O)CC[C@H](NC(=O)CCCCCCCCCCCCCCCCCCC(=O)O)C(=O)O)C(=O)N[C@@H](CC(N)=O)C(=O)N[C@@H]([C@@H](C)O)C(=O)N[C@@H](C)C(=O)N[C@@H]([C@@H](C)O)C(=O)N1)[C@@H](C)O)C(=O)N1CCC[C@H]1C(=O)N[C@@H](CO)C(=O)N[C@@H](CO)C(=O)N[C@H](C(=O)N[C@@H](CC(N)=O)C(=O)N[C@H](C(=O)NCC(=O)N[C@@H](CO)C(=O)N[C@@H](Cc1c[nH]cn1)C(=O)N[C@H](C(=O)N[C@@H](Cc1ccc(O)cc1)C(N)=O)[C@@H](C)O)C(C)C)[C@@H](C)O
notes: extended by one residue at the N-terminus; also called compound 45

hAmylin-R funct. EC50 [3]: 0.094 nM
hCTR funct. EC50 [4]: 1.25 nM
B5: N^ε1-[2-[2-[2-[[(4S)-4-carboxy-4-(19-carboxynonadecanoylamino)butanoyl]amino]ethoxy]ethoxy]acetyl]-[His14,Arg17,Pro21,Pro27]-h-amylin (peptide)
peptide: K([AEEA-γGlu-C20 diacid])CNTATCATQRLAHFLRHSSPNFGAIPSSTNVGSNTY-NH2
modifications: disulfide 2-7; N-terminus assumed
SMILES: CC[C@H](C)[C@H](NC(=O)[C@H](C)NC(=O)CNC(=O)[C@H](Cc1ccccc1)NC(=O)[C@H](CC(N)=O)NC(=O)[C@@H]1CCCN1C(=O)[C@H](CO)NC(=O)[C@H](CO)NC(=O)[C@H](Cc1c[nH]cn1)NC(=O)[C@H](CCCNC(=N)N)NC(=O)[C@H](CC(C)C)NC(=O)[C@H](Cc1ccccc1)NC(=O)[C@H](Cc1c[nH]cn1)NC(=O)[C@H](C)NC(=O)[C@H](CC(C)C)NC(=O)[C@H](CCCNC(=N)N)NC(=O)[C@H](CCC(N)=O)NC(=O)[C@@H](NC(=O)[C@H](C)NC(=O)[C@@H]1CSSC[C@H](NC(=O)[C@@H](N)CCCCNC(=O)COCCOCCNC(=O)CC[C@H](NC(=O)CCCCCCCCCCCCCCCCCCC(=O)O)C(=O)O)C(=O)N[C@@H](CC(N)=O)C(=O)N[C@@H]([C@@H](C)O)C(=O)N[C@@H](C)C(=O)N[C@@H]([C@@H](C)O)C(=O)N1)[C@@H](C)O)C(=O)N1CCC[C@H]1C(=O)N[C@@H](CO)C(=O)N[C@@H](CO)C(=O)N[C@H](C(=O)N[C@@H](CC(N)=O)C(=O)N[C@H](C(=O)NCC(=O)N[C@@H](CO)C(=O)N[C@@H](CC(N)=O)C(=O)N[C@H](C(=O)N[C@@H](Cc1ccc(O)cc1)C(N)=O)[C@@H](C)O)C(C)C)[C@@H](C)O
notes: also called compound 69

Second part, the binder before the results:

B1: N^ε-[(4S)-4-carboxy-4-(19-carboxynonadecanoylamino)butanoyl]Lys[Arg1,Arg17,Pro21,Pro27,His35]-h-amylin (peptide)
peptide: K([γGlu-C20 diacid])RCNTATCATQRLANFLRHSSPNFGAIPSSTNVGSHTY-NH2
modifications: disulfide 3-8; N-terminus assumed
SMILES: CC[C@H](C)[C@H](NC(=O)[C@H](C)NC(=O)CNC(=O)[C@H](Cc1ccccc1)NC(=O)[C@H](CC(N)=O)NC(=O)[C@@H]1CCCN1C(=O)[C@H](CO)NC(=O)[C@H](CO)NC(=O)[C@H](Cc1c[nH]cn1)NC(=O)[C@H](CCCNC(=N)N)NC(=O)[C@H](CC(C)C)NC(=O)[C@H](Cc1ccccc1)NC(=O)[C@H](CC(N)=O)NC(=O)[C@H](C)NC(=O)[C@H](CC(C)C)NC(=O)[C@H](CCCNC(=N)N)NC(=O)[C@H](CCC(N)=O)NC(=O)[C@@H](NC(=O)[C@H](C)NC(=O)[C@@H]1CSSC[C@H](NC(=O)[C@H](CCCNC(=N)N)NC(=O)[C@@H](N)CCCCNC(=O)CC[C@H](NC(=O)CCCCCCCCCCCCCCCCCCC(=O)O)C(=O)O)C(=O)N[C@@H](CC(N)=O)C(=O)N[C@@H]([C@@H](C)O)C(=O)N[C@@H](C)C(=O)N[C@@H]([C@@H](C)O)C(=O)N1)[C@@H](C)O)C(=O)N1CCC[C@H]1C(=O)N[C@@H](CO)C(=O)N[C@@H](CO)C(=O)N[C@H](C(=O)N[C@@H](CC(N)=O)C(=O)N[C@H](C(=O)NCC(=O)N[C@@H](CO)C(=O)N[C@@H](Cc1c[nH]cn1)C(=O)N[C@H](C(=O)N[C@@H](Cc1ccc(O)cc1)C(N)=O)[C@@H](C)O)C(C)C)[C@@H](C)O
notes: extended by one residue at the N-terminus; also called compound 44
Ratio hCT/hAmylin binding [1]: 17.7
IC50 [2]: 4.87 nM

B3: N^-1-[(4S)-4-carboxy-4-(19-carboxynonadecanoylamino)butanoyl]-Gly[Arg1,Arg17,Pro21,Pro27,His35]-h-amylin (peptide)
peptide: {C20 diacid-γGlu}-GRCNTATCATQRLANFLRHSSPNFGAIPSSTNVGSHTY-NH2
modifications: disulfide 3-8
SMILES: CC[C@H](C)[C@H](NC(=O)[C@H](C)NC(=O)CNC(=O)[C@H](Cc1ccccc1)NC(=O)[C@H](CC(N)=O)NC(=O)[C@@H]1CCCN1C(=O)[C@H](CO)NC(=O)[C@H](CO)NC(=O)[C@H](Cc1c[nH]cn1)NC(=O)[C@H](CCCNC(=N)N)NC(=O)[C@H](CC(C)C)NC(=O)[C@H](Cc1ccccc1)NC(=O)[C@H](CC(N)=O)NC(=O)[C@H](C)NC(=O)[C@H](CC(C)C)NC(=O)[C@H](CCCNC(=N)N)NC(=O)[C@H](CCC(N)=O)NC(=O)[C@@H](NC(=O)[C@H](C)NC(=O)[C@@H]1CSSC[C@H](NC(=O)[C@H](CCCNC(=N)N)NC(=O)CNC(=O)CC[C@H](NC(=O)CCCCCCCCCCCCCCCCCCC(=O)O)C(=O)O)C(=O)N[C@@H](CC(N)=O)C(=O)N[C@@H]([C@@H](C)O)C(=O)N[C@@H](C)C(=O)N[C@@H]([C@@H](C)O)C(=O)N1)[C@@H](C)O)C(=O)N1CCC[C@H]1C(=O)N[C@@H](CO)C(=O)N[C@@H](CO)C(=O)N[C@H](C(=O)N[C@@H](CC(N)=O)C(=O)N[C@H](C(=O)NCC(=O)N[C@@H](CO)C(=O)N[C@@H](Cc1c[nH]cn1)C(=O)N[C@H](C(=O)N[C@@H](Cc1ccc(O)cc1)C(N)=O)[C@@H](C)O)C(C)C)[C@@H](C)O
notes: extended by one residue at the N-terminus; also called compound 47
Ratio hCT/hAmylin binding [1]: 44.9
IC50 [2]: 15.5 nM

B6: N^α1-[2-[2-[2-[[2-[2-[2-[[(4S)-4-carboxy-4-(19-carboxynonadecanoylamino)butanoyl]amino]ethoxy]ethoxy]acetyl]amino]ethoxy]ethoxy]acetyl]-[Glu14,Arg17,Pro21,Pro27 … (peptide)
peptide: KCNTATCATQRLAEFLRHSSPNFGAIPSSTNVGSNTY
modifications: C20 diacid-gGlu-2xOEG on the alpha amino group of the N-terminal residue; disulfide bridge Cys2-Cys7; C-terminal amide
notes: also called compound 19
Ratio hCT/hAmylin binding [1]: 36.7
IC50 [2]: 20.4 nM
